Substitutions are numbered along the chain they refer to. Numbers in names are those of the source.
Tests used:
[1] = biological target: T1, human FcγRIIa(R) (allotype R131) (human, UniProt P12318 36-217); experiment: SPR (Biacore T100), antibody captured by Protein L, FcγR as analyte, pH 7.4, 25 C
T1 construct: Soluble analyte in SPR; also called hFcgRIIa(R); FcgRIIaR
T1 chain: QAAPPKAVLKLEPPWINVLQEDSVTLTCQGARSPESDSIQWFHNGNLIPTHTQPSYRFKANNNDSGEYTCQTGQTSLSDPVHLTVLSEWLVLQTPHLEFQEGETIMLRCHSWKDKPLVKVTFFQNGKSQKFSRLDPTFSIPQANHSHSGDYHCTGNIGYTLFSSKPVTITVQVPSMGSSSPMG
Description: (§1) Interaction of these antibodies with FcγRIIa(R) and FcγRIIb was analyzed using the BIACORE™ T100 surface plasmon resonance system (GE Healthcare). Measurements were carried out at 25° C. using a buffer consisting of 20 mM N-(2-acetamido)-2-aminoethanesulfonic acid (ACES), 150 mM NaCl and 0.05% polysorbate 20 (Tween 20®) (pH 7.4) for the running buffer. The Series S Sensor Chip CM4 (GE Healthcare) was used after immobilizing Protein L by amine coupling. […] Antibody captured on the chip was washed by reacting with 10 mM glycine-HCl (pH 1.5) following measurement, and the chip regenerated in this manner was used repeatedly.
(§2) Measurement results were analyzed using the BIACORE™ Evaluation Software. Antibody was captured by Protein L, and the amount of change in a sensorgram before and after the antibody was captured was defined as X1. […]

human FcγRIIb [2] = biological target: T2, human FcγRIIb (human, UniProt P31994 43-217, limits assumed); experiment: as above
T2 construct: Soluble analyte in SPR; also called hFcgRIIb; FcgRIIb
T2 sequence: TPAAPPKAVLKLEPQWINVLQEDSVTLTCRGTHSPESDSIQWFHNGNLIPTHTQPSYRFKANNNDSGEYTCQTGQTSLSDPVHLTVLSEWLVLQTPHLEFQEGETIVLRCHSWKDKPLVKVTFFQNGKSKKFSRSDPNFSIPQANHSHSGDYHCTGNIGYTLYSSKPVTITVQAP
Description: as §1, §2

human FcγRIa [3] = biological target: T3, human FcγRIa (human, UniProt P12314 16-292, limits assumed); experiment: SPR (Biacore), antibody captured, FcγR as analyte, method of Example 14
T3 construct: also called CD64
T3 sequence (P12314 16-292 limits assumed): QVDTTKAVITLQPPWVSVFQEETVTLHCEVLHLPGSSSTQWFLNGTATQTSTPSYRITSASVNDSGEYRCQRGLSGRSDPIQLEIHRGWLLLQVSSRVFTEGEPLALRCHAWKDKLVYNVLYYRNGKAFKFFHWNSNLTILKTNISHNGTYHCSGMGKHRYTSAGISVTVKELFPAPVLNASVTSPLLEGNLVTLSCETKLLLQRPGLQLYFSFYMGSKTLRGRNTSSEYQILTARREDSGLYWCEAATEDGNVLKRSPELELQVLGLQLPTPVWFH
Description: (§3) Next, interaction between these antibodies and FcγR was analyzed kinetically using the BIACORE™ T100 (GE Healthcare). The interaction was measured at a temperature of 25° C. using HBS-EP+ (GE Healthcare) for the running buffer. The Series S Sensor Chip CM5 (GE Healthcare) was used after immobilizing Protein A by amine coupling. […] Antibody captured on the chip was washed by allowing 10 mM glycine-HCl (pH 1.5) to react following measurement. The chip regenerated in this manner was used repeatedly. The dissociation constant KD (mol/L) was calculated from the association rate constant ka (L/mol/s) and dissociation rate constant kd (1/s) as calculated by global-fitting the measurement results with a 1:1 Langmuir binding model using the BIACORE™ Evaluation Software.
(§4) Furthermore, KD(IIaR)/KD(IIb) and KD(IIaH)/KD(IIb) in the table respectively show the value obtained by dividing the KD value of each variant for FcγRIIaR by the KD value of each variant for FcγRIIb, and the value obtained by dividing the KD value of each variant for FcγRIIaH by the KD value of each variant for FcγRIIb.

human FcγRIIa type R [4] = biological target: T4, human FcγRIIa type R (human, UniProt P12318 36-217); experiment: as above
T4 construct: also called FcγRIIaR; FcγRIIa(R)
T4 chain: T1 chain
Description: as §3, §4

human FcγRIIb [5] = biological target: T5, human FcγRIIb (human, UniProt P31994 43-217); experiment: as above
T5 construct: also called FcγRIIb extracellular region; FcγIIB
T5 sequence: T2 sequence
Description: as §3, §4

human FcγRIIb [6] = biological target: T5, human FcγRIIb; experiment: ratio of SPR KD values of the same variant: KD for FcγRIIaH / KD for FcγRIIb
Description: as §3, §4

human FcγRIIb [7] = biological target: T5, human FcγRIIb; experiment: ratio of SPR KD values of the same variant: KD for FcγRIIaR / KD for FcγRIIb
Description: as §3, §4

human FcγRIIb [8] = biological target: T5, human FcγRIIb; experiment: ratio of SPR KD values for FcγRIIb; reference: parent polypeptide IL6R-F11/IL6R-L
Description: as §3, §4

human FcγRIIIa(F) [9] = biological target: T6, human FcγRIIIa(F) (human, UniProt P08637 17-208, limits assumed); experiment: SPR (Biacore), antibody captured on Protein L, human FcgR injected, pH 7.4, 25 C; normalised to captured amount x 1500
T6 construct: also called hFcgRIIIa(F); allotype F158
T6 sequence (P08637 other isoform, or with tags, fused parts or gaps limits assumed): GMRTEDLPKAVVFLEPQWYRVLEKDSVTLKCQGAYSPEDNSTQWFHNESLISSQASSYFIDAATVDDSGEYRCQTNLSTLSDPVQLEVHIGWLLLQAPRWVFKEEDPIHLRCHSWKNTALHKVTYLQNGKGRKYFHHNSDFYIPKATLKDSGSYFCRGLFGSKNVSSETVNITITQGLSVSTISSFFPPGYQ
Description: Binding activity between the antibodies and human FcγRIa, FcγRIIa(H), FcγRIIa(R), FcγRIIb and FcγRIIIa(F) (hereinafter referred to as human FcγRs) was evaluated using the BIACORE™ T100 or T200 surface plasmon resonance system (GE Healthcare). The antibodies being tested were captured by Protein L (ACTIGEN® protein (Alltech)) that was immobilized in suitable amounts on the CM4 Sensor Chip (GE Healthcare) by amine coupling. Next, the diluted human FcγRs and a running buffer used as a blank were injected to allow interaction with the antibodies captured on the sensor chip. A buffer consisting of 20 mmol/L N-(2-acetamido)-2-aminoethanesulfonic acid (ACES), 150 mmol/L NaCl and 0.05% (w/v) polysorbate 20 (Tween 20®) (pH 7.4) was used for the running buffer, and this buffer was also used to dilute the human FcγRs. 10 mmol/L glycine-HCl (pH 1.5) was used to regenerate the sensor chip. All measurements were carried out at 25° C.
Binding activity to human FcγRs can be represented by the relative binding activity to human FcγRs. Antibody was captured by Protein L, and the amount of change in a sensorgram before and after the antibody was captured was defined as X1. […]

human FcγRIa [10] = biological target: T7, human FcγRIa (human, UniProt P12314 16-292, limits assumed); experiment: SPR (Biacore), antibody captured on chip, FcgR injected, HBS-EP+, 25 C; bound amount corrected by captured amount; reference itself
T7 construct: also called hFcgRIa
T7 sequence (P12314 16-292 limits assumed): as the sequence (P12314 16-292 limits assumed) above

human FcγRIIa(R) [11] = biological target: T8, human FcγRIIa(R) (human, UniProt P12318 36-217); experiment: as above
T8 construct: also called hFcgRIIa(R); FcγRIIa type R
T8 chain: T1 chain

human FcγRIIa(H) [12] = biological target: T9, human FcγRIIa(H) (human, UniProt P12318 36-217); experiment: as above
T9 construct: also called hFcgRIIa(H); FcγRIIa type H
T9 sequence: T1 chain with R133H

human FcγRIIb [13] = biological target: T10, human FcγRIIb (human, UniProt P31994 43-217, limits assumed); experiment: as above
T10 construct: also called hFcgRIIb
T10 sequence: T2 sequence

human FcγRIIIa(F) [14] = biological target: T6, human FcγRIIIa(F); experiment: as above
human FcγRIIa type R [15] = biological target: T11, human FcγRIIa type R (human, UniProt P12318 36-217); experiment: SPR (Biacore), amount of FcγR bound to captured antibody relative to IL6R-BF648/IL6R-L x100
T11 construct: also called FcgRIIaR; FcγRIIa(R)
T11 chain: T1 chain
Description: According to the following method, relative binding activities were calculated for the results of analyzing interactions with the respective FcγRs.

human FcγRIIa(H) [16] = biological target: T12, human FcγRIIa(H) (human, UniProt P12318 36-217); experiment: SPR, antibody captured, FcγR as analyte, capture-corrected binding amount
T12 construct: also called FcgRIIaH; FcγRIIa type H
T12 sequence: T1 chain with R133H
Description: (§5) Interaction between each modified antibody and Fcγ receptor prepared in the manner described above was analyzed using the BIACORE™ T100 surface plasmon resonance system (GE Healthcare), BIACORE™ T200 surface plasmon resonance system (GE Healthcare), BIACORE™ A100 surface plasmon resonance system or BIACORE™ 4000 surface plasmon resonance system. HBS-EP+(GE Healthcare) was used for the running buffer, and measurements were carried out at 25° C. The chips used were chips in which antigen peptides, Protein A (Thermo Scientific), Protein A/G (Thermo Scientific) or Protein L (ACTIGEN® protein (Alltech or BioVision) were immobilized on the Series S Sensor Chip CM5 (GE Healthcare) or Series S Sensor Chip CM4 (GE Healthcare) by amine coupling, or chips in which preliminarily biotinylated antigen peptides were allowed to interact and then immobilized on the Series S Sensor Chip SA (certified) (GE Healthcare). The target antibodies were captured on these sensor chips, Fcγ receptor diluted with the running buffer was allowed to interact, followed by measurement of the amount of bound antibody. The amounts bound were compared between antibodies. However, since the amount of Fcγ receptor bound depends on the amount of captured antibody, the values used for comparison were first corrected by dividing the amount of Fcγ receptor bound by the captured amount of each antibody. Through reaction with 10 mM glycine-HCl at pH 1.5, the sensor chips were regenerated by washing off antibody captured on the sensor chips and used repeatedly.
(§6) Binding strength was evaluated according to the following method based on the results of analyzing the interaction with each FcγR. […] That value was then further multiplied by 100, and the resulting value was used as an indicator of relative binding activity to each FcγR.

human FcγRIIa(H) [17] = biological target: T13, human FcγRIIa(H) (human, UniProt P12318 36-217); experiment: SPR (Biacore), captured antibody, FcγR analyte
T13 construct: also called FcgRIIaH; FcγRIIa type H
T13 sequence: T1 chain with R133H
Description: Interaction between each modified antibody and Fcγ receptor prepared in the manner described above was analyzed using the BIACORE™ T100 surface plasmon resonance system (GE Healthcare), BIACORE™ T200 surface plasmon resonance system (GE Healthcare), BIACORE™ A100 surface plasmon resonance system or BIACORE™ 4000 surface plasmon resonance system. HBS-EP+(GE Healthcare) was used for the running buffer, and measurements were carried out at 25° C. The chips used were chips in which antigen peptides, Protein A (Thermo Scientific), Protein A/G (Thermo Scientific) or Protein L (ACTIGEN® protein (Alltech or BioVision) were immobilized on the Series S Sensor Chip CM5 (GE Healthcare) or Series S Sensor Chip CM4 (GE Healthcare) by amine coupling, or chips in which preliminarily biotinylated antigen peptides were allowed to interact and then immobilized on the Series S Sensor Chip SA (certified) (GE Healthcare). The target antibodies were captured on these sensor chips, Fcγ receptor diluted with the running buffer was allowed to interact, followed by measurement of the amount of bound antibody. The amounts bound were compared between antibodies. […]
Binding strength was evaluated according to the following method based on the results of analyzing the interaction with each FcγR. […]

human FcγRIa [18] = biological target: T7, human FcγRIa; experiment: SPR (Biacore), antibody captured on chip, FcgR injected, HBS-EP+, 25 C; bound amount corrected by captured amount; reference GpH7-G1d/GpL16-k0
Description: as §5

human FcγRIIa(R) [19] = biological target: T8, human FcγRIIa(R); experiment: as above
Description: as §5

human FcγRIIa(H) [20] = biological target: T9, human FcγRIIa(H); experiment: as above
Description: as §5

human FcγRIIb [21] = biological target: T10, human FcγRIIb; experiment: as above
Description: as §5

human FcγRIIIa(F) [22] = biological target: T6, human FcγRIIIa(F); experiment: as above
Description: as §5

human FcγRIIb [23] = biological target: T14, human FcγRIIb (human, UniProt P31994 43-217, limits assumed); experiment: SPR, captured antibody, FcγR analyte; bound amount per captured antibody
T14 construct: also called FcgRIIb; FcγIIB
T14 sequence: T2 sequence
Description: as §5, §6

human FcγRIIIa(F) [24] = biological target: T15, human FcγRIIIa(F) (human, UniProt P08637 17-208, limits assumed); experiment: as above
T15 construct: also called FcgRIIIaF; FcγRIIIa allotype F158
T15 sequence (P08637 other isoform, or with tags, fused parts or gaps limits assumed): as the sequence (P08637 other isoform, or with tags, fused parts or gaps limits assumed) above
Description: as §5, §6

B1: antibody containing VH3-IgG1-F652 for the heavy chain and L(WT)-CK for the light chain (antibody)
heavy: QVQLQESGPGLVKPSETLSLTCAVSGHSISHDHAWSWVRQPPGEGLEWIGFISYSGITNYNPSLQGRVTISRDNSKNTLYLQMNSLRAEDTAVYYCARSLARTTAMDYWGEGTLVTVSSASTKGPSVFPLAPSSKSTSGGTAALGCLVKDYFPEPVTVSWNSGALTSGVHTFPAVLQSSGLYSLSSVVTVPSSSLGTQTYICNVNHKPSNTKVDKKVEPKSCDKTHTCPPCPAPELLGGDSVFLFPPKPKDTLYISRTPEVTCVVVDVSHEDPEVKFNWYVDGVEVHNAKTKPREEQYNSTYRVVSVLTVLHQDWLNGKEYKCKVSNKALPAPIEKTISKAKGQPREPQVYTLPPSRDELTKNQVSLTCLVKGFYPSDIAVEWESNGQPENNYKTTPPVLDSDGSFFLYSKLTVDKSRWQQGNVFSCSVMHEALHYHYTQKSLSLSP
light: not shown
notes: VH3-IgG1-F11 with P238D (EU numbering)
Question: Which results are given for B1?
Answer: BINDING AMOUNT (RU) [1]: 9.1 RU; BINDING AMOUNT (RU) (human FcγRIIb [2]): 64 RU

B2: IL6R-PD080/IL6R-L (antibody)
heavy: B1 heavy with G239D
light: DIQMTQSPSSLSASVGDRVTITCRASQDISSYLNWYQQKPGKAPKLLIYYTSRLHSGVPSRFSGSGSGTDFTFTISSLQPEDIATYYCQQGNTLPYTFGQGTKVEIK
notes: Alteration is counted against IL6R-F11; also called G237D/P238D; P238D/G237D
Question: B2 was tested. Which Kd (human FcγRIa [3]) did it give?
Answer: 140 nM

Question: What about the Kd (human FcγRIIa type R [4]) of the same binder?
Answer: 21000 nM

Question: And the Kd (human FcγRIIb [5])?
Answer: 2000 nM

Question: What about the “KD(IIaH)/KD(IIb)” value (human FcγRIIb [6]) of the same binder?
Answer: 12.8

Question: And the “KD(IIaR)/KD(IIb)” value (human FcγRIIb [7])?
Answer: 10.7

Question: And the “KD(IIb) of parent polypeptide/KD(IIb) of altered polypeptide” value (human FcγRIIb [8])?
Answer: 3.5

B3: antibody containing VH3-IgG1-F1356 for the heavy chain and L(WT)-CK for the light chain (antibody)
heavy: B1 heavy with G238R, D240P, L330R, Y438V
light: not shown
Question: B3 was tested. Which “BINDING AMOUNT (RU)” value (human FcγRIIIa(F) [9]) did it give?
Answer: 4.09 RU

B4: GpH7-G1d/GpL16-k0 (antibody)
chain 1: not shown
chain 2: DIVMTQSPLSLPVTPGEPASISCQASESLVHSNRNTYLHWYLQKPGQSPQLLIYKVSNRFSGVPDRFSGSGSGTDFTLKISRVEAEDVGVYYCSQNTHVPPTFGQGTKVEIERTVAAPSVFIFPPSDEQLKSGTASVVCLLNNFYPREAKVQWKVDNALQSGNSQESVTEQDSKDSTYSLSSTLTLSKADYEKHKVYACEVTHQGLSSPVTKSFNRGEC
Question: For B4, which “relative binding activity (amount bound / amount bound by GpH7-G1d/GpL16-k0 x 100)” value (human FcγRIa [10]) is on record?
Answer: 100

Question: What about the “relative binding activity (amount bound / amount bound by GpH7-G1d/GpL16-k0 x 100)” value (human FcγRIIa(R) [11]) of the same binder?
Answer: 100

Question: What about the “relative binding activity (amount bound / amount bound by GpH7-G1d/GpL16-k0 x 100)” value (human FcγRIIa(H) [12]) of the same binder?
Answer: 100

Question: What about the “relative binding activity (amount bound / amount bound by GpH7-G1d/GpL16-k0 x 100)” value (human FcγRIIb [13]) of the same binder?
Answer: 100

Question: And the “relative binding activity (amount bound / amount bound by GpH7-G1d/GpL16-k0 x 100)” value (human FcγRIIIa(F) [14])?
Answer: 100

B5: IL6R-BP195/IL6R-L (antibody, human IgG1, name in EU numbering)
heavy: QVQLQESGPGLVKPSETLSLTCAVSGHSISHDHAWSWVRQPPGEGLEWIGFISYSGITNYNPSLQGRVTISRDNSKNTLYLQMNSLRAEDTAVYYCARSLARTTAMDYWGEGTLVTVSSASTKGPSVFPLAPSSKSTSGGTAALGCLVKDYFPEPVTVSWNSGALTSGVHTFPAVLQSSGLYSLSSVVTVPSSSLGTQTYICNVNHKPSNTKVDKKVEPKSCDKTHTCPPCPAPDYLGDDSVFLFPPKPKDTLMISRTPEVTCVVVDVSDEDGEVKFNWYVDGVEVHNAKTKPREEQDNSTYRVVSVLTVLHQDWLNGKEYKCKVSNAALPKPIEKTISKAKGQPREPQVYTLPPSRDELTKNQVSLTCLVKGFYPSDIAVEWESNGQPENNYKTTPPVLDSDGSFFLYSKLTVDKSRWQQGNVFSCSVMHEALHNHYTQESLSLSP
light: B2 light
notes: Anti-human IL-6 receptor IgG1 Fc variant; also called E233D/L234Y/G237D/P238D/H268D/P271G/Y296D/K326A/A330K; copies: 2 + 2
Question: Which “relative binding activity” value (human FcγRIIa type R [15]) does the source give for B5 here?
Answer: 661 % of IL6R-BF648/IL6R-L

B6: GpH7-B3 N325Y/GpL16-k0 (antibody, human IgG1)
heavy: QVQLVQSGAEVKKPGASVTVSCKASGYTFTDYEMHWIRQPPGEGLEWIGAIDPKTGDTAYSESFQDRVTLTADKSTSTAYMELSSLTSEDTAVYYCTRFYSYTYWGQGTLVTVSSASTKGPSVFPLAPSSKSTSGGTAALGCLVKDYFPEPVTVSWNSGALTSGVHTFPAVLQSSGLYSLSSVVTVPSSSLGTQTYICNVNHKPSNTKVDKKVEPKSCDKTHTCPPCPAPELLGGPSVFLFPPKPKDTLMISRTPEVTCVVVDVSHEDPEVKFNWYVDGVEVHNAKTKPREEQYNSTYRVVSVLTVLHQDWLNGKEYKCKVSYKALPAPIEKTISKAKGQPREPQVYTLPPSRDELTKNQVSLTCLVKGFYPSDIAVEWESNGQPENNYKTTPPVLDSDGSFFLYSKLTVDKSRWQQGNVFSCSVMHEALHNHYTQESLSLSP
light: DIVMTQSPLSLPVTPGEPASISCQASESLVHSNRNTYLHWYLQKPGQSPQLLIYKVSNRFSGVPDRFSGSGSGTDFTLKISRVEAEDVGVYYCSQNTHVPPTFGQGTKVEIE
notes: Anti-glypican-3 human IgG1 with B3 constant region (G1d with K439E); also called B3 variant; copies: 2 + 2
Question: How did the relative binding activity (human FcγRIIa(H) [16]) turn out when B6 was run?
Answer: -9 % of GpH7-B3/GpL16-k0

B7: GpH7-B3 variant V266R/GpL16-k0 (antibody, human IgG1)
heavy: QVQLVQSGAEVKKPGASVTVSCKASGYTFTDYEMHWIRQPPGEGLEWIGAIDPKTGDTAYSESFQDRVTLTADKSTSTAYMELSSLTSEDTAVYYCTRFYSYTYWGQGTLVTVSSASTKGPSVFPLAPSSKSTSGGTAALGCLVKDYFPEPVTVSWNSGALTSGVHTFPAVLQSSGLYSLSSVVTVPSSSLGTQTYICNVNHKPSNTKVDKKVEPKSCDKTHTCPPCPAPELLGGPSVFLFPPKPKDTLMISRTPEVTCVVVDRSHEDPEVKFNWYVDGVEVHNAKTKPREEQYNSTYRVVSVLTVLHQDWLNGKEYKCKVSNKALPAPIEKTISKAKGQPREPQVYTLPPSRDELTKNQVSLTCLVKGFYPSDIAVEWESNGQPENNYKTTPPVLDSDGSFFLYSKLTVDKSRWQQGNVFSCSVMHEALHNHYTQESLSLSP
light: B6 light
notes: anti-glypican-3 IgG1; alteration introduced into GpH7-B3; copies: 2 + 2
Question: B7 was tested. Which relative binding activity (human FcγRIIa(H) [17]) did it give?
Answer: 1 % of GpH7-B3/GpL16-k0

B8: GpH7-B3/GpL16-k0 (antibody, human IgG1)
heavy: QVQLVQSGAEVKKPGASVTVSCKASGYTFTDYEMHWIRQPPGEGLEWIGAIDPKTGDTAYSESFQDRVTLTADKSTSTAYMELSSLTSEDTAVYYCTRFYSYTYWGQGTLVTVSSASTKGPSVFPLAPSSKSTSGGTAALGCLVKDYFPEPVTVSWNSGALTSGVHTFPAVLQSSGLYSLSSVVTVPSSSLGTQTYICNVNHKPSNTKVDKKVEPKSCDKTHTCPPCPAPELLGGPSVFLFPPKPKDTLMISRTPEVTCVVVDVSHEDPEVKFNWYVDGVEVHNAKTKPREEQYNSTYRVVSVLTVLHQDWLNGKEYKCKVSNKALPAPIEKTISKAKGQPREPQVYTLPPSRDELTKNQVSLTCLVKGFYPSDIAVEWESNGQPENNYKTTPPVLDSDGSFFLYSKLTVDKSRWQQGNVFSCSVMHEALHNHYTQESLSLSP
light: B6 light
notes: also called anti-glypican-3 antibody with B3 constant region (G1d with K439E)
Question: Which “relative binding activity (amount bound / amount bound by GpH7-G1d/GpL16-k0 x 100)” value (human FcγRIa [18]) does the source give for B8 here?
Answer: 109

Question: And the “relative binding activity (amount bound / amount bound by GpH7-G1d/GpL16-k0 x 100)” value (human FcγRIIa(R) [19])?
Answer: 94

Question: And the “relative binding activity (amount bound / amount bound by GpH7-G1d/GpL16-k0 x 100)” value (human FcγRIIa(H) [20])?
Answer: 92

Question: And the “relative binding activity (amount bound / amount bound by GpH7-G1d/GpL16-k0 x 100)” value (human FcγRIIb [21])?
Answer: 88

Question: What about the “relative binding activity (amount bound / amount bound by GpH7-G1d/GpL16-k0 x 100)” value (human FcγRIIIa(F) [22]) of the same binder?
Answer: 88

B9: GpH7-B3 L235R/GpL16-k0 (antibody, human IgG1)
heavy: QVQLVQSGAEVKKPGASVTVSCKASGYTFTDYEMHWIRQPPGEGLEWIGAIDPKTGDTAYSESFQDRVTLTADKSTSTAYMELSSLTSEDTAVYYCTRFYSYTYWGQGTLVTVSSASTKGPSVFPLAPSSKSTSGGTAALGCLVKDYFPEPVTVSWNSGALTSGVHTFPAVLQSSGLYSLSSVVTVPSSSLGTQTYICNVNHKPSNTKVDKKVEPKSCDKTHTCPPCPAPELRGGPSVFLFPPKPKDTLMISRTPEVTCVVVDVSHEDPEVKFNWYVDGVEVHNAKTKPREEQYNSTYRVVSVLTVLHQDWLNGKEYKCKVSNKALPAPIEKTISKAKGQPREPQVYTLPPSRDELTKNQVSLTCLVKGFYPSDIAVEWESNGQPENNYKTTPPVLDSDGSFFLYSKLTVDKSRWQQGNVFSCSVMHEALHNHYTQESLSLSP
light: B6 light
notes: anti-glypican-3 IgG1; B3 constant region (G1d with K439E); also called B3 variant; copies: 2 + 2
Question: For B9, which relative binding activity (human FcγRIIb [23]) is on record?
Answer: 2 % of GpH7-B3/GpL16-k0

B10: GpH7-B3 variant V266K/GpL16-k0 (antibody, human IgG1)
heavy: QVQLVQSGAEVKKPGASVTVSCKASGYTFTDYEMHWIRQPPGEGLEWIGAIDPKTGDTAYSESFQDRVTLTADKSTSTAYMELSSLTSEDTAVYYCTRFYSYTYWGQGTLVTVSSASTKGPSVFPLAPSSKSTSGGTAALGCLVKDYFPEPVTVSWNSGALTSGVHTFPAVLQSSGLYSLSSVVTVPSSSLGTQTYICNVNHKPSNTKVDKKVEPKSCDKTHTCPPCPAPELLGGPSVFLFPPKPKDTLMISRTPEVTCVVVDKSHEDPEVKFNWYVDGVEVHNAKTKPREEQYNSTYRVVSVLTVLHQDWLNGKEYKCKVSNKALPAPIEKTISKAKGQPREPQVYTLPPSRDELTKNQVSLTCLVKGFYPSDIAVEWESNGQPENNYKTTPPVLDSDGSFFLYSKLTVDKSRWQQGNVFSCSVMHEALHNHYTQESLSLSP
light: B6 light
notes: as for B7
Question: Which relative binding activity (human FcγRIIa(H) [17]) does the source give for B10 here?
Answer: 1 % of GpH7-B3/GpL16-k0

B11: GpH7-B3 G236R/GpL16-k0 (antibody, human IgG1)
heavy: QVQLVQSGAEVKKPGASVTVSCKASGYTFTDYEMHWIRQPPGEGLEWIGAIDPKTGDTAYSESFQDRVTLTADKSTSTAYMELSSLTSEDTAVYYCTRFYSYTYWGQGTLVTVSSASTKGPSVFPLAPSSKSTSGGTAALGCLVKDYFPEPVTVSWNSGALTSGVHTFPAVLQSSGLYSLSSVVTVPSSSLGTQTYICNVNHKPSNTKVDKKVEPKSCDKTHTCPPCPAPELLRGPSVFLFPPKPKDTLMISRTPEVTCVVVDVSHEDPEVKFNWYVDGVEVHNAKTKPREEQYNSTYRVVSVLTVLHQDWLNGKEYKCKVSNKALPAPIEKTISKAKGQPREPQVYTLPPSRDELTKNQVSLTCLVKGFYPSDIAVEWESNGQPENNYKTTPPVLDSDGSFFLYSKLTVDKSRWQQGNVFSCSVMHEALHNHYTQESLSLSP
light: B6 light
notes: as for B9
Question: For B11, which relative binding activity (human FcγRIIIa(F) [24]) is on record?
Answer: 1 % of GpH7-B3/GpL16-k0
